Assays:
Assay in all cases: sucrose density gradient sedimentation
[1] = target: L80P mutant hemagglutinin (X:31 strain, HA2 L80P) (influenza virus, X:31 strain) (UniProt P03437)
[2] = target: S71P mutant hemagglutinin (X:31 strain, HA2 S71P) (influenza virus, X:31 strain) (UniProt P03437)
[3] = target: V55P/S71P double proline mutant hemagglutinin (X:31 strain, HA2 V55P and S71P) (influenza virus, X:31 strain) (UniProt P03437)

“L80P mutant hemagglutinin (X:31 strain, HA2 L80P) (from UniProt P03437 17-344) (natural protein)” gave a stoichiometry N [1] of 3.

“S71P mutant hemagglutinin (X:31 strain, HA2 S71P) (from UniProt P03437 17-344) (natural protein)” showed a stoichiometry N [2] of 3.

In the case of “V55P/S71P double proline mutant hemagglutinin (X:31 strain, HA2 V55P and S71P) (from UniProt P03437 17-344) (natural protein)”, the stoichiometry N [3] is reported as 3.

— paper PMC2132786
